The values below come from article PMC6557205, “Functional interplay between YY1 and CARM1 promotes oral carcinogenesis”.

In this series the target is His-YY1 full length (UniProt P25490 1-414). The experiment in a line: EMSA; unlabelled probe competes; anti-His supershift; EMSA buffer 10% glycerol, 75 mM KCl, 10 mM HEPES (pH not stated), 5 mM MgCl2; 30 C, 30 min (Fig 7F: 15 min methylation + 15 min binding); 5% native PAGE in 0.5X TBE at 4 C. The note with it: protein: recombinant; tags: His (pET28b); label: 32P 5' end label on one strand; blunt.
His-YY1 full length, sequence (P25490 whole entry): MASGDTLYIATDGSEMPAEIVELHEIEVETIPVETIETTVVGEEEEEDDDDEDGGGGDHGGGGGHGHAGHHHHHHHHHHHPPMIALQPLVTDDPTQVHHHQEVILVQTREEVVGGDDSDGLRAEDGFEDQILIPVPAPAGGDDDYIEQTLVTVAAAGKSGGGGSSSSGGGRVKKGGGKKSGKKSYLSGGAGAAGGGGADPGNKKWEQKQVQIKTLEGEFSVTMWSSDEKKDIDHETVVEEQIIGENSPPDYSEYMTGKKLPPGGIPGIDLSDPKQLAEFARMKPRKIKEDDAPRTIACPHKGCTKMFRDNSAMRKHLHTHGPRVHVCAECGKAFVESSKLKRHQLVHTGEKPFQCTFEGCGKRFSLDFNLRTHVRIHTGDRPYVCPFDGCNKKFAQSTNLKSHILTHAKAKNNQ

B1: CARM1proYY1_BS1 (dsDNA)
DNA 1: GGGACCTCTGGATCCCATGGTTGGATGGCTGGGGGGTGGA
DNA 2: TCCACCCCCCAGCCATCCAACCATGGGATCCAGAGGTCCC
In the case of B1, the binding result is reported as “binds”.
